{"source": "paper doi:10.1101/2025.11.27.690993", "target": "SroF^Phi3T, master repressor of phage Phi3T (recombinant) (Bacillus phage Phi3T)", "assay": "BLI", "data": [{"substance": "Sar^Phi3T, shorter annotation lacking the first 10 amino acids (recombinant) (natural protein)", "values": [{"measurement": "Kd", "value": 21.7, "unit": "nM"}]}]}
